Reference: patent US20100197896A1 (published 2010)
Each block holds one binder with its values, some of them ahead of it.

Molecular target: T1, human CD20 antigen (human, UniProt P11836 1-297)
T1 construct: whole, on cells; also called MS4A1
T1 sequence (looked up): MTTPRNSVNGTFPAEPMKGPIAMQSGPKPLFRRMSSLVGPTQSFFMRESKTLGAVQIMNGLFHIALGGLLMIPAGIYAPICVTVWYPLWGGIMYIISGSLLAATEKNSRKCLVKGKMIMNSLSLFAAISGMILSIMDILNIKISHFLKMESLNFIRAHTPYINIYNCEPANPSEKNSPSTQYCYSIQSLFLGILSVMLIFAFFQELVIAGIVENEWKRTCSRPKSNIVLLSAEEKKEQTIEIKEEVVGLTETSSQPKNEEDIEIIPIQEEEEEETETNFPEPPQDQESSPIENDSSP
Experiment: competition flow cytometry against FITC-conjugated fr1F5 (FIG. 6)

binding result: binds
B1: framework-re-engineered 1F5 antibody (antibody, V domains shown)
VH: QVQLVASGAEVNKPGASVKVSCKASGYTFTSYNMHWVRQPPGRGLEWIGAIYPGNGDTSYNQKFKGRVTITADKSTSTAYMELSSLRSEDTAVYYCARSHYGSNYVDYFDYWGQGTTVTVSS
VL: DIQLTQSPSSLSASVGDRVTITCRASSSLSFMHWYQQKPGQAPVPVIYATSNLASGVPSRFSGSGSGTEFTLTISSLQPEDFATYFCHQWSSNPLTFGAGTKLTVLR
notes: also called fr1F5

binding result: binds
B2: murine 1F5 antibody (antibody, V domains shown)
VH: QVQLRQPGAELVKPGASVKMSCKASGYTFTSYNMHWVKQTPGQGLEWIGAIYPGNGDTSYNQKFKGKATLTADKSSSTAYMQLSSLTSEDSAVYYCARSHYGSNYVDYFDYWGQGTTLTVSS
VL: QIVLSQSPAILSASPGEKVTMTCRASSSLSFMHWYQQKPGSSPKPWIYATSNLASGVPARFSGSGSGTSYSLTISRVEAEDAATYFCHQWSSNPLTFGAGTKLELKR
notes: Mouse IgG with a kappa light chain, from hybridoma ATCC HB-9645; also called anti-CD20 mAb 1F5
